The subject of assay [1] is tibialis anterior muscles of mdx mice. As to the kind of experiment: Intramuscular transfer of dystrophin plasmid pTG11025, dystrophin immunohistochemistry. Type of assay: in vivo, mouse. The following applies: pTG11025 i.m. with adjuvant (IL-10 0.1 μg, DMSO 10% final, G-actin 10 μg), notexin 3 days before, 7 days after injection; mean +/- sem. How it is done:
(§1) Plasmids are prepared according to Bischoff et al. (Analytical Biochemistry 254 (1997), 69-81). The tested interleukin-10s were mixed with the plasmid preparation (pTG11033: CMV promoter, β-globin intron, luciferase cassette; pTG11025: CMV promoter, β-globin intron, dystrophin cassette; both diluted in 0.9% NaCl), prior to intramuscular injection. 25 μg of plasmid are injected per muscle in 5 to 10 week-old C57BI/10 or mdx mice. The 2 tibialis anterior (right and left) muscles were injected (each muscle was considered as a sample, which means number of samples per condition=2×number of mice per condition).
(§2) One week after injection of the composition, mice were killed and the tibialis anterior muscles were retrieved and frozen. Based on the injected vector, either luciferase activity was determined in muscle extracts, or dystrophin expression was evaluated by immunohistochemistry.
Muscle samples were frozen in liquid nitrogen-cooled isopentane and stored at −80° C. […]
In a second experiment mdx mice were 3 times injected intramuscularly with pTG11025 (dystrophin) plus DMSO, G-actin and IL-10 after notexin-induced muscle regeneration. Plasmid-adjuvant injections were repeated 3 times in raw on a daily basis and dystrophin expression (immunohistochemistry) was evaluated 7 days after the last injection. […]

Assay [2] relates to tibialis anterior muscles of C57BL/10 mice. As to the kind of experiment: Intramuscular transfection of luciferase plasmid pTG11033, luciferase activity of injected muscles. It is filed as in vivo, mouse. The note with it: IL-10 0.01 and 0.1 μg + 25 μg pTG11033 per muscle, dose-dependent. As to the method: as §1, §2
Luciferase activity was quantified using a conventional measurement kit (Luciferase Assay System, Promega). […] Luciferase activity was expressed as number of RLU emitted per minute.
Proteins were measured on 10 μl samples using a VCA Protein Assay Kit (Pierce). […]
One week after injection of the vectors, the mice were killed and the tibialis anterior muscles were retrieved and frozen. Luciferase activity was determined on muscle extracts. […]

With `C[S+](C)[O-]` [DMSO, dimethylsulfoxide], the “Number of dystrophin-positive fibers per cryosection” value in assay [1] is given as 37.8 +/− 5.5.

B1: IL-10: human recombinant IL-10 (Sigma) (protein, UniProt P22301 19-178, looked up)
Interleukin-10: SPGQGTQSENSCTHFPGNLPNMLRDLRDAFSRVKTFFQMKDQLDNLLLKESLLEDFKGYLGCQALSEMIQFYLEEVMPQAENQDPDIKAHVNSLGENLKTLRLRLRRCHRFLPCENKSKAVEQVKNAFNKLQEKGIYKAMSEFDIFINYIEAYMTMKIRN
Take B1: in assay [2], the “increase of luciferase expression” value was determined as 3 factor. Further, in assay [1], the “Number of dystrophin-positive fibers per cryosection” value is on record as 21.7 +/− 1.9.

These data come from patent US6528312B1, “Use of G-actin for improving transfection of a polynucleotide into a cell” (Transgene S.A., priority 1998, dated 2003).
